Measured values as given in patent publication US20170152290A1.

Experiments:
[1] = target: LRP1 receptor (Low Density Lipoprotein Receptor-Related Protein) on Vero cells; test: cell-based or functional assay
[2] = target: T1, sLRP1-CIV (cluster IV of LRP1 fused to the constant region of a human IgG1) (human); test: SPR (Biacore X), sLRP1-CIV immobilised on CM5 chip, peptide at 20 µM; RU observed at 160 s
[3] = target: T1, sLRP1-CIV (cluster IV of LRP1 fused to …); test: SPR (Biacore X), sLRP1-CIV immobilised on CM5 chip, peptide at 20 µM; RU at 270 s

Binder | Antiviral activity in Vero cells, IC50 (plaque reduction, DENV2) [1] | RU (at 270 s) [3] | also measured
CSNIVIGIGDKALKINACKKK (modifications not checked) [peptide HDIII3CLW-] | > 100 µM | – | –
CSNIVIGIGDKALAINWCKKK (modifications not checked) [peptide HDIII3CLK-] | > 100 µM | – | RU (at 160 s) [2]: 276 RU
FWNWKWEKNKWTWNVEGGKKK (modifications not checked) [beta hairpin peptide PHB5] | 17 µM | 175 RU | –
CSNIVIGIGDKALKINWCKKK (modifications not checked) [peptide HDIII3CL2] | 20 µM | – | RU (at 160 s) [2]: 1010 RU
CIEVYWTRPKWKVNWFICKKK (modifications not checked) [beta hairpin peptide PHB4] | 0.003 µM | 3600 RU | Antiviral activity IC50 vs DENV1 (plaque reduction, Vero cells) [1]: 0.002 µM; Antiviral activity IC50 vs DENV2 (plaque reduction, Vero cells) [1]: 0.003 µM; Antiviral activity IC50 vs DENV3 (plaque reduction, Vero cells) [1]: 0.005 µM; Antiviral activity IC50 vs DENV4 (plaque reduction, Vero cells) [1]: 0.01 µM
CIEVNWTEPDKKVNWFICKKK (modifications not checked) [beta hairpin peptide PHB3] | 17 µM | – | –
CVNWTEPDKKVNWCKKK (modifications not checked) [beta hairpin peptide PHB1] | 75 µM | 117 RU | –
CIEVYVTINGKKYNWFICKKK (modifications not checked) [beta hairpin peptide PHB9] | 7 µM | 1080 RU | –
FWNWKWEPNKWTWNVEGGKKK (modifications not checked) [beta hairpin peptide PHB6] | 33 µM | – | –
CVNVTINGKKYNWCKKK (modifications not checked) [beta hairpin peptide PHB7] | 79 µM | – | –
CVYWTRPKWKVNWCKKK (modifications not checked) [beta hairpin peptide PHB2] | 12 µM | 861 RU | –
SSNIVIGIGDKALKINWSKKK (modifications not checked) [peptide HDIII3CLC-] | > 100 µM | – | –
CIEVNVTINGKKYNWFICKKK (modifications not checked) [beta hairpin peptide PHB8] | 15 µM | – | –
